Results on 14 molecules are retold here after patent publication US20160251404A1 (Molecular Partners, published 2016).

For orientation: IC50 means the midpoint of a concentration-inhibition curve. As usually defined, the Kd is the equilibrium constant for the complex coming apart.

Sequences and labels used below:
B1: DARPin #37 (designed binder)
chain: MRGSHHHHHHGSDLGKKLLEAARAGQDDEVRILMANGADVNATDLTGFTPLHLAAYYGHLEIVEVLLKYGADVNADDRYGLTPLHLAANTGHLEIVEVLLKNGADVNASDSVGTTLLHLAAYIGHPEIVEVLLKYGADVNAQDKFGKTAFDISIDNGNEDLAEILQKLN
B2: DARPin #51 (designed binder)
chain: MRGSHHHHHHGSDLGKKLLEAARAGQDDEVRILLKAGADVNAKDRYGDTPLHLAADIGHLEIVEVLLKAGADVNAEDYFGNTPLHLAASYGHLEIVEVLLKAGADVNAKDDYGNTPLHLAANTGHLEIVEVLLKAGADVNAQDKSGKTPADLAADAGHEDIAEVLQKLN
B3: DARPin #42 (designed binder)
chain: MRGSHHHHHHGSDLGKKLLEAARAGQDDEVRILMANGADVNAKYEDGLTPLHLAAFYGHLEIVEVLLKHGADVNATDAWGHTPLHLAAHYGHLEIVEVLLKYGADVNAIDTLGYTPLHLAANFGHLEIVEVLLKNGADVNAQDKFGKTAFDISIDNGNEDLAEILQKLN
B4: DARPin #43 (designed binder)
chain: B3 chain with H89Y, A108T, I109H, T111K, L112E, Y114M, P116A, N122L, F123T
B5: DARPin #41 (designed binder)
chain: B3 chain with K68R, H89Y, Y90L, I109E, L112E, N122M, F123D, V129I, N135H
B6: DARPin #33 (designed binder)
chain: MRGSHHHHHHGSDLGKKLLEAARAGQDDEVRILMANGADVNAHDYSGFTPLHLAAYYGHLEIVEVLLKHGADVNAFDDWGHTPLHLAARYGHLEIVEVLLKYGADVNAEDTEGYTPLHLAAMDGHLEIVEVLLKNGADVNAQDKFGKTAFDISIDNGNEDLAEILQKLN
B7: DARPin #57 (designed binder)
chain: MRGSHHHHHHGSDLGKKLLEAARAGQDDEVRILMANGADVNAHDYLGLTPLHLAASDGHLEIVEVLLKHGADVNAYDYNGLTPLHLAANNGHLEIVEVLLKYGADVNAFDVAGYTPLHLAAYFGHLEIVEVLLKYGADVNAQDKFGKTAFDISIDNGNEDLAEILQKLN
B8: DARPin #59 (designed binder)
chain: MRGSHHHHHHGSDLGKKLLEAARAGQDDEVRILMANGADVNADDSLGLTPLHLAAASGHLEIVEVLLKNGADVNAVDQNSFTPLYLAANNGHLEIVEVLLKNGADVNAFDWHGTTPLHLAAMFGHLEIVEVLLKNGADVNAQDKFGKTAFDISIDNGNEDLAEILQKLN
B9: DARPin #60 (designed binder)
chain: MRGSHHHHHHGSDLGMKLLEAARAGQDDEVRILMANGADVNAHDTWGLTPLHLAAFHGHQEIVEVLLKHGADVNAQDFYGKTPLHLAALRGHLEIVEVLLKYGADVNAQDQFGKTAFDISIDNGNEDLAEILQKLN
B10: DARPin #38 (designed binder)
chain: MRGSHHHHHHGSDLGKKLLEAARAGQDDEVRILMANGADVNATDANGFTPLHLAAFYGHLEIVEVLLKYGADVNAYDNFGLTPLHLAASYGHLEIVEVLLKNGADVYAQDKFGKTAFDISIDNGNEDLAEILQKLN
B11: DARPin #48 (designed binder)
chain: MRGSHHHHHHGSDLGKKLLEAARAGQDDEVRILMANGADVNAKDRFGDTPLHLAADIGHLKIVEVLLKHGADVNAEDWFGNTPLHLAASMGHLEIVEVLLKYGADVNAMDDYGNTPLHLAANTGHLEIVEVLLKHGADVNAQDKFGKTAFDISIDNGNEDLAEILQKLN
B12: DARPin #58 (designed binder)
chain: MRGSHHHHHHGSDLGKKLLEAARAGQDDEVRILMANGADVNAHDYVGLTPLHLAASIGHLEIVEVLLKYGADVNASDYNGFTPLYLAANNGHLEIVEVLLKNGADVNATDSFGYTPLHLAAHYGHLEIVEVLLKNGADVNAQDKFGKTAFDISIDNGNEDLAEILQKLN
B13: DARPin #56 (designed binder)
chain: MRGSHHHHHHGSDLGKKLLEAARAGQDDEVRILMANGADVNANDFLGLTPLHLAASTGHLEIVEVLLKYGADVNAIDAYGHTPLHLAANNGHLEIVEVLLKYGADVNAIDHFGYTPLHLAAMFGHLEIVEVLLKNGADVNAQDKFGKTAFDISIDNGNEDLAEILQKLN
B14: DARPin #61 (designed binder)
chain: MRGSHHHHHHGSDLGKKLLEAARAGQDDEVRILMANGADVNAEDYLGHTPLHLAASTGHLEIVEVLLKYGADVNAKDRNGLTPLYLAANNGHLEIVEDLLKYGADVNADDDNGTTPLHLAAIFGHLEIVEVLLKYGADVNAQDKFGKTAFDISIDNGNEDLAEILQKLN

Substitutions are numbered along the chain they refer to.

T1 sequence (P14210 32-728 limits assumed): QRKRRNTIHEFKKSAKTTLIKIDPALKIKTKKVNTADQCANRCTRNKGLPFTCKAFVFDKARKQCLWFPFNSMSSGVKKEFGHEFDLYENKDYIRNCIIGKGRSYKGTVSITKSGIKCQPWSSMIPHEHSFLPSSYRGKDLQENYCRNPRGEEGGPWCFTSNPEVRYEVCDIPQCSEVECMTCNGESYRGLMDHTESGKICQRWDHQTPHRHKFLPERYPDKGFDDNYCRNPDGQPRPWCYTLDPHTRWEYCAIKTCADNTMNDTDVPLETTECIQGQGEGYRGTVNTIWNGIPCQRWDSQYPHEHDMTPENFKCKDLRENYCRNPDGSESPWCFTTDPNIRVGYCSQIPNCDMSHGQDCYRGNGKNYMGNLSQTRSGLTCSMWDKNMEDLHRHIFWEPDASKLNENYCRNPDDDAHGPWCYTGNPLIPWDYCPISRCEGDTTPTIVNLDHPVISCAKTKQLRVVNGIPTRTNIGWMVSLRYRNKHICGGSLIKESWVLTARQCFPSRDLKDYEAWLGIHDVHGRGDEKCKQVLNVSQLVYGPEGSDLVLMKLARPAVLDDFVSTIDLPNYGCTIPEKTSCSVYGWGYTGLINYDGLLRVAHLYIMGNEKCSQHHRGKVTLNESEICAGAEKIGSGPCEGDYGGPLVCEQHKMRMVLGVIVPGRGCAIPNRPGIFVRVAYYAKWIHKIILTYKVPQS

One test addresses T1, recombinant human HGF (hepatocyte growth factor) (human, UniProt P14210 32-728). Kind of test: cell-based or functional assay.
B1: the “IC50 of U87 cell proliferation (BrdU)” value was 400 nM.
Consider B2, for which the “IC50 of U87 cell proliferation (BrdU)” value amounted to 116 nM.
Same read-out and setting: then B3, with 82 nM; and B4, with 71 nM.
The same measure, in the same setting: then B5, with 113 nM; and B6, with 137 nM.
Consider B7, for which the “IC50 of U87 cell proliferation (BrdU)” value was 730 nM.
The same measure, in the same setting: then B8, with 3280 nM; and B9, with 78 nM.

For a further test, the target named is T1, recombinant human HGF (hepatocyte …). Kind of test: cell-based or functional assay. The source holds these as a separate data set.
Consider B4, for which the “IC50 of U87 cell proliferation (BrdU)” value amounted to 72 nM.

The next test shares this target. The experiment in a line: cell-based or functional assay. This is another data set of the same source.
Consider B10, for which the “% inhibition of HGF stimulated c-Met phosphorylation in A549 cells” value (“% inhibition” for short) amounted to 88% and the “IC50 of HGF stimulated c-Met phosphorylation in A549 cells” value (“IC50 … in A549 cells” for short) was 2.59 nM.
The like results for B11 were, in that order, 95% and 0.1 nM.
The like results for B1 were, in that order, 95% and 0.07 nM.
On to B12, for which the “% inhibition” value was 89% and the “IC50 … in A549 cells” value amounted to 1.63 nM.
As for B2, the “% inhibition” value came to 81% and the “IC50 … in A549 cells” value came out at 0.01 nM.
The like results for B3 were, in that order, 98% and 0.32 nM.
For B4, in that order: 101% and 0.16 nM.
The like results for B5 were, in that order, 99% and 0.13 nM.
On to B6, for which the “% inhibition” value came to 100% and the “IC50 … in A549 cells” value came to 0.2 nM.
For B13, in that order: 72% and 0.53 nM.
The like results for B7 were, in that order, 100% and 1.72 nM.
As for B8, the “% inhibition” value was found to be 100% and the “IC50 … in A549 cells” value is 0.85 nM.
As to B9, the “% inhibition” value amounted to 94% and the “IC50 … in A549 cells” value is 0.05 nM.
Consider B14, for which the “% inhibition” value worked out at 82% and the “IC50 … in A549 cells” value amounted to 0.39 nM.

For another test the target is unchanged. Kind of test: receptor competition ELISA: DARPin premixed with human HGF, binding of HGF to coated c-Met Fc chimera detected with anti-HGF antibody. The procedure: The potency of anti-HGF DARPins to inhibit the binding of human HGF to its receptor c-Met was determined in a receptor competition ELISA. c-Met (Fc chimera; RnD systems, USA, 358-MT-100/CF) was pre-coated on a microplate. DARPins and HGF were premixed in PBSTC and incubated at room temperature for 0.5 hours. These preincubation mixtures were then transferred into the with c-Met precoated wells and any HGF that was not blocked by the DARPins was bound by the immobilized receptor. After washing away any unbound substances, an polyclonal antibody specific for HGF (RnD systems, USA, AF-294-NA) was added to the wells. After washing away any unbound substances, an horse radish peroxidase conjugated antibody (Novus Biologicals, USA, NB7357) binding to the polyclonal antibody specific for HGF was added to the wells. Following a wash to remove any unbound antibody-enzyme reagent, a substrate solution (Roche, Switzerland, 11484281001) was added to the wells and color was developing in proportion to the amount of HGF bound. The color development was stopped and the intensity of the color was measured at 405 nm. […] Example titration curves are given for a set of DARPins in FIG. 5. IC₅₀ values were calculated from such titration curves obtained as described above using standard procedures known to the person skilled in the art.
In the case of B11, the IC50 stood at 0.91 nM.
On the same count and under the same terms, the result for B1 reads 1.33 nM.
Turning to B2, the IC50 stood at 0.62 nM.
Still for that read-out and setting: then B4, with 1.36 nM.
Consider B7, for which the IC50 worked out at 1.71 nM.
Regarding B9, the IC50 was 0.95 nM.

For another test the target is unchanged. Kind of test: SPR (ProteOn), human HGF immobilized on GLC chip, DARPin injected, PBS 0.005% Tween 20. How it is done:
SPR was measured using a ProteOn instrument (BioRad) and measurement was performed according standard procedures known to the person skilled in the art. The running buffer was PBS, pH 7.4, containing 0.005% Tween 20®. Human HGF was covalently immobilized on a GLC chip (BioRad) to a level of about 5000 resonance units (RU). The interaction of DARPin and HGF was then measured by injecting 200 μl running buffer (PBS containing 0.005% Tween®) containing serial dilutions of DARPins of concentration of […] (on-rate measurement), followed by a running buffer flow for 25 minutes at a constant flow rate of 100 μl/min (off-rate measurement). The signals (i.e. resonance unit (RU) values) of the interspots and a reference injection (i.e. injection of running buffer only) were subtracted from the RU traces obtained after injection of DARPin (double-referencing). From the SPR traces obtained from the on-rate and off-rate measurements the on- and off-rate of the corresponding DARPin HGF interaction can be determined. […] Dissociation constants (Kd) were calculated from the estimated on- and off-rates using standard procedures known to the person skilled in the art. […] As an example, Table 1 summarizes the Kd values for some of the selected DARPins.
On to B10, for which the Kd is 1.6 nM.
In the case of B11, the Kd came out at 0.016 nM.
On the same count and under the same terms, the result for B1 reads 0.011 nM; that for B12, 0.578 nM; that for B2, 0.051 nM.
Same read-out and setting: then B3, with 0.084 nM; and B4, with 0.025 nM; and B6, with 0.148 nM.
For the molecule B13, the Kd is 0.736 nM.
Take B7: the Kd was 16.6 nM.
As to B8, the Kd stood at 0.528 nM.
As for B9, the Kd was 0.026 nM.
Same read-out and setting: then B14, with 0.16 nM.
